Data as given in the DeepSol protein solubility set.

Assay: soluble on expression in E. coli; label from the status in PepcDB or PDB records

Sequence | soluble on expression in E. coli
MSLARSVVVSAEAVYSHEGEYVGDHVLVDEGLVKSISRGEPHVSVGKRVAVKGFLLPPLVDAHLHMRSLGASFRIVNLKGASSPEEVAKRLAAANSPIAVGRGWNEEEFRPGSRLDRRILDSYLGEKPALAVRICGHVAVANSAFIRESGVDKLFPNLVDRERGLLLEDAVSYAVSVAMKTYNNEELLRDAASALASVGVFGVSSMACSEEEVRALSLIGDALEVRVACYLRRGVEPPPKRAGARWSIVGVKLFADGSLGGRTAYLRRPYISGENEGWRGLKLLSSRDIAEEAVSNSHRGLATAVHAIGDAALDEVLEGFSNAISRGVEPGMLRVEHASLAWPNQIDRLASLRVWTVVQPLFRVSDWWLESRVGSDMLQAAYPFASMLRAGVKLALSTDAPVETYDPAETFKAAVGLCSSRLCRESESLTPRETLKLYTLNSALASGGPVAWLGRLRRGAPALFAVANVDVLNSGRKELEKLKFRGLNLAKEGHHHHHH | soluble
MDGELRALLNAVLERLDVQGVYIEQMRMDIVKLQGSVKQLEDKVDRIQSDVEAMKKDMDAMKKDMDAMKKDMLGVKKDVAALKEGQVRQEKIMERLAIRSIEQEAEIDELRKEISA | not soluble
MGSDKIHHHHHHMPTPRPWLYLGTTHALCEDCLALIPAKVVAEDGCVWHLKRCPAHGPQRTMISSDYAYWREARDFIKPGDLPAHFHTQVDKGCPHDCGLCPDHEQHSCLALVEVTDSCGLDCPTCFAQSRPGRGHRSLAEVEAMLDAVVRSEGGSPDIVQISGGEPADHPQILEILRAAKARPIRHVMLNTNGVRLARDPDFATALAGLGPGFEVYLQWDSLEPEALSVLRGADLREVRKGALAALDRHGISTTLVCVMAKGVNDGEVGAIIDHALAVACVRGVSFQPLQDAGRSPGLGKDSRMLPSDIRRAIIEQSNGLFGPADLVPLPCNPESITIAYALRHGNRATAVTGLVPRDLLLSAVPNALTFDAVPGLKDSLMRLLSMSCAGEDTAVQMGKLLCCLPGIQAPASLTYDKVFRLSIVQFLDRYSFCLGQVKRACVHVAQPDGKMIPIDTFNLFHRSNNHD | not soluble
TVVCDNGYGDLAATSALTTVIKDPISLTIKDIYEHGVKNPFTKIIHKLKKFIRYRKVLRWSRMWWVLLVREIVGDNTIEKKTEKALREIWDQCTIAVYNNTLNAVESKPLLFLHGILNECRNNFATKLRQDPSLIVAKIDQIIKSQIYRFWVSEPYLKIGRSHTLYTHITPDAVPQLPKECTLKHLSSYMEEKLKSMESKKNIESGKYEFDVDSSETDSTKDDGKPDDDDDDDDNFDDDDNFDDDTVEEEDASGDLFKNEKKDENKE | soluble
MDDEEKDMADSFQNEVPAARVNIKLDLHTGNAKKKVELPLKLLAVGDYSNGKEQRPLSERDKVDINKNNFNSVMAEFSPAVNLTVEDTLNGNGNEQNIALEFKSLKDFEPEQVAKNIPQLRVLLAMRNLLRDLKSNLLDNATFRRELENILKDPTLSSELRDELAKIAPQENV | soluble
MDQNPNYNFGYGQAYGSGTDHTSDSTNNYNWASQWSQPESAASLATHTFPQYVSQQQQQQQQQAQQQAQNTYAAMNPISTFMQQQQRAQTFPQKKYGQQGGAPKPSAIRNNNFGAFGGGHALSQEWVQPMSQNQMGGPQGNRFFNNQKGGPFNQNKPNWRQNKPKGPAAPKKFDSTGKSPAMLLHELFKDVSEEYTEVEGVPKKYCCTLKVNGRTFQMESVNKKAAKQKCSELVVRDLRPDVHVTPFEEGVAAKAAAPVKKEIDAASGNGQNNKRNLLQADAISNQPTPKKVSAVKKAKLQLTPVESALSLLDLMQKIIAESAEKYSPVFEASEVPKDPEIPEVEVKKEEVDTNGENVANEKKSGWRKNETMHNVTLKFVEQNKQYTKMGPSRGVLKDMVIREALRDLFNVSHADITTVARRHASNRLGHDTTILQCLNTICSILNCTLTIECEPAEDRPLGIGRAYFMAKCTIIDHNENDLKFEVKSSSLASKAMAKDWVAQETLKNYFAIDPSSCVKTDAVSSQGPCALLHAMLNKQTKQKCKIAYEFKDNVPPVAGQATTTFYCECVIDETDRYIGVGRSKKLAKSEAAMQALKKLFKIDYDPAGNYPLALTSRAMTESKVSPLCRHIAEFCKREYHQMTEYYQIPPSNLFAAFLLVNAQEEKRVLAMGSSIQYIVEPDTLSGANGTSLLHLDAIILARRAMLKAFIHELSTVDSECSIFEKKEEGKAALKPNLRLVLYSNYSPPCIHAVDDAATKKLSYVTPTNLTCVPDDVLTYEQIKETKSLRVHCTADKLFKWNTLGIQGALLSNVLHPIFIDNIFFGSEAPVSDESLSYALQGRLGPNENEREIIVESMPVQMRMHMGISHLWHRGVDSVETLDYNTGRTSKGSPSRVCKAEIFEAYRKLNGVDQAVVNYAKAKEMASEYQYEKKVFYEKLEAAGLGKWQTKPAELVDSFTLAAFD | not soluble
